From the supplement of paper PMC10126150
± gives the standard deviation of the averaged measurements.

System: ATP
Assay: switch fluorescence ratio, 500 uM ATP over buffer (Cy3 cluster intensity, sum of 5 cycles each) (fold (ratio)); higher = stronger signal-on switching upon ATP binding; sequences stand for … in TCGTCGGCAGCGTCAGATGTGTATAAGAGACAGTTTTTTTTTTTTTTTTTTTTTTTTT…TC
Conditions: aptamer strand: ATP DNA aptamer (quencher-CACCTGGGGGAGTATTGCGGAGGAAGG + anchor), 100 nM annealed; ATP concentration: 500 uM
Procedure, shortened: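 Between each of five buffer/ATP cycles, the flow-cell was stripped with NaOH and re-annealed. Each cycle imaged Cy3-labelled switching-strand clusters, annealed to 100 nM quencher-labelled ATP aptamer on a modified Illumina MiSeq flow-cell, first in selection buffer and then after 15 min with 500 uM ATP at 22 °C. The fluorescence ratio is summed target-cycle over summed buffer-cycle Cy3 intensity per cluster, averaged per switch-domain sequence, with clusters outside 100-1000 RFU excluded.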
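Also: ATP exposure 15 min at 22 °C before imaging.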

Sequence | switch fluorescence ratio
CAGACTGGTT | 1.011 ± 0.0067
CAGAGAAAC | 1.1 ± 0.12
CAGAGGAGGT | 0.982 ± 0.017
CAGAGGATAG | 1.017 ± 0.0088
CAGAGGATAT | 1.021 ± 0.01
CAGAGGGCTA | 1.03 ± 0.038
CAGAGGGGCG | 1.04 ± 0.043
CAGAGGGGGG | 0.994 ± 0.019
CAGAGGGGTC | 0.999 ± 0.022
CAGAGGTGCG | 0.969 ± 0.056
CAGAGTAAGC | 1.01 ± 0.021
CAGAGTAATA | 1.45 ± 0.1
CAGATAAAAA | 1.03 ± 0.02
CAGATAATAT | 1.04 ± 0.022
CAGATAGGCT | 1.04 ± 0.019
CAGATAGTGT | 1.018 ± 0.002
CAGATGATAT | 0.992 ± 0.047
CAGATTAAGT | 0.992 ± 0.03
CAGATTTTTT | 0.982 ± 0.028
CAGCAGGGAG | 1.1 ± 0.096
CAGCATGGGG | 1.03 ± 0.017
CAGCCAAATA | 1.1 ± 0.029
CAGCCGCTGT | 1.79 ± 0.026
CAGCCGTTTC | 1.03 ± 0.033
CAGCCTTGGT | 1.04 ± 0.11

Sequence | switch fluorescence ratio
CAGCGAGGAA | 1.014 ± 0.0091
CAGCGCCGTT | 1.006 ± 0.004
CAGCGCGGGA | 0.999 ± 0.014
CAGCGGAGGT | 1.025 ± 0.0052
CAGCGGTGGG | 1.02 ± 0.029
CAGCGTATCA | 1.01 ± 0.0018
CAGCTAGTGG | 1.011 ± 0.0011
CAGCTCTGGG | 1 ± 0.022
CAGCTGTCGG | 1.1 ± 0.12
CAGCTTGATA | 0.979 ± 0.018
CAGGAACCGA | 1.14 ± 0.017
CAGGAACTGT | 0.985 ± 0.018
CAGGAACTTG | 0.956 ± 0.023
CAGGAAGGAT | 0.994 ± 0.016
CAGGAATATA | 1.014 ± 0.0049
CAGGACCTCG | 1.03 ± 0.024
CAGGAGAAGG | 1.05 ± 0.022
CAGGAGACGA | 1.03 ± 0.025
CAGGAGCTGT | 1.2 ± 0.034
CAGGATACGC | 1.21 ± 0.34
CAGGATCATG | 1.11 ± 0.15
CAGGATTTGG | 0.985 ± 0.013
CAGGATTTTT | 0.993 ± 0.042
CAGGCCTAGG | 0.946 ± 0.024
CAGGCGACTG | 0.9706 ± 0.0041

Sequence | switch fluorescence ratio
CAGGCGAGGG | 0.9905 ± 0.0078
CAGGCGTGCA | 0.998 ± 0.018
CAGGCTGGAC | 1.06 ± 0.046
CAGGCTGTCG | 1.02 ± 0.036
CAGGCTTTTT | 1 ± 0.029
CAGGGAGCTT | 1.01 ± 0.03
CAGGGAGGGA | 0.992 ± 0.02
CAGGGATGTG | 1.03 ± 0.013
CAGGGATTAA | 0.9842 ± 0.0036
CAGGGATTTT | 0.98 ± 0.022
CAGGGCGATA | 1.1 ± 0.033
CAGGGCGGA | 0.993 ± 0.015
CAGGGCGGGC | 0.84 ± 0.073
CAGGGCTATT | 1.01 ± 0.037
CAGGGGAGCG | 0.993 ± 0.037
CAGGGGCCGG | 0.978 ± 0.018
CAGGGGCGGA | 1.04 ± 0.03
CAGGGGCGGG | 0.966 ± 0.11
CAGGGGGAAT | 1.1 ± 0.11
CAGGGGGGG | 1 ± 0.011
CAGGGGGGGG | 1.01 ± 0.031
CAGGGGGGGT | 1.03 ± 0.061
CAGGGGTGCG | 0.991 ± 0.013
CAGGGTACGC | 1.04 ± 0.016
CAGGGTTAAT | 1.012 ± 0.0094

Sequence | switch fluorescence ratio
CAGGGTTCGT | 0.9894 ± 0.0081
CAGGGTTGGG | 1 ± 0.019
CAGGGTTTGG | 1.01 ± 0.023
CAGGGTTTTA | 1.006 ± 0.0055
CAGGTCGACG | 1.05 ± 0.032
CAGGTCGCTT | 1.01 ± 0.0019
CAGGTCTTGA | 0.9888 ± 0.0014
CAGGTGGGGT | 1.16 ± 0.08
CAGGTTATAT | 1.03 ± 0.028
CAGGTTTCGG | 0.987 ± 0.022
CAGGTTTCGT | 0.989 ± 0.021
CAGGTTTGGC | 0.9775 ± 0.002
CAGGTTTTGG | 0.964 ± 0.034
CAGTAAATGT | 0.984 ± 0.054
CAGTAAGAAT | 0.9809 ± 0.0019
CAGTAAGAGC | 0.935 ± 0.0095
CAGTAATTAT | 0.997 ± 0.02
CAGTAGGGTA | 1 ± 0.045
CAGTATGCAC | 1.01 ± 0.047
CAGTATGGGA | 0.999 ± 0.02
CAGTCAGAGT | 0.985 ± 0.023
CAGTCGTCGA | 1.001 ± 0.0033
CAGTCTACGA | 1.03 ± 0.015
CAGTCTTGC | 1.03 ± 0.021
CAGTGAAAAA | 1.06 ± 0.089
